Experiments:
[1] = target: T1, cynomolgus monkey CD38 (CHO cells stably expressing cyno CD38) (cynomolgus monkey, UniProt Q5VAN0 1-301); assay: flow cytometry, VivoTag645-labeled, CHO cells stably expressing cyno CD38, 4 °C, 1 hour, gMFI
T1 construct: whole, on cells
Experimental: (§1) FIG. 26. […] Extent of cell surface binding was assessed by flow cytometry. […]

[2] = target: T2, human CD38 on the cell surface (Raji and other human tumor cell lines) (human, UniProt P28907 1-300); assay: flow cytometry, VivoTag645-labeled, human CD38 expressing Raji tumor cells, 4 °C, 1 hour, gMFI
T2 construct: whole, on cells; also called cell surface CD38
Experimental: as §1

T1 sequence (Q5VAN0 whole entry): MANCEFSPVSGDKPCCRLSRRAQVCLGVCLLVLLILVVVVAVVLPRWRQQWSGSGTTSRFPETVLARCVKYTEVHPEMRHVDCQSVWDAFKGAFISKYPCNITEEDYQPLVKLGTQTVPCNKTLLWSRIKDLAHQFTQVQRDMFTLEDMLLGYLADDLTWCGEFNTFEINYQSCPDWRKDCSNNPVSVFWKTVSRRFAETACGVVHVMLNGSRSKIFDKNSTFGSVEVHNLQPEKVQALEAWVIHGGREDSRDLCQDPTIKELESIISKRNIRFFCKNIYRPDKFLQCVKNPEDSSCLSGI

binding result [1]: binds | EC50 (read off the curve) [2]: ~0.8 nM
B1: S1A-AA-Cyno (anti-Cyno CD38 mAb) (antibody, V domains shown)
VH: QLLESGGGLVQPGGSLRLSCAASGFTFDDYGMSWVRQAPGKGLEWVSDISWNGGKTHYVDSVKGQFTISRDNSKNTLYLQMNSLRAEDTAVYYCARGSLFHDSSGFYFGHWGQGTLVTVSS
VL: QSVLTQPPSASGTPGQRVTISCSGSSSNIGDNYVSWYQQLPGTAPKLLIYRDSQRPSGVPDRFSGSKSGTSASLAISGLRSEDEADYYCQSYDSSLSGSVFGGGTKLTVLG
modifications: VivoTag645 dye label in the flow cytometry assays
notes: Surrogate anti-CD38 human monoclonal IgG1 antibody; VivoTag645-labeled in flow cytometry; also called SIA-AA-Cyno; S1A-AA-Cyno CD38

— patent US20210269546A1 (MOMENTA PHARMACEUTICALS, published 2021)
